Measurements published in patent publication US10731143B2, “Methods and compositions for stabilizing trans-splicing intein modified proteases” (AGRIVIDA, INC., priority 2014, dated 2020).

B1: Savinase: extracellular alkaline protease from Bacillus lentus (Uniprot P29600), SEQ ID NO: 6; Novozymes stock, intein unmodified reference enzyme (protein, listed as Bacillus lentus)
chain: MKKPLGKIVASTALLISVAFSSSIASAAEEAKEKYLIGFNEQEAVSEFVEQVEANDEVAILSEEEEVEIELLHEFETIPVLSVELSPEDVDALELDPAISYIEEDAEVTTMAQSVPWGISRVQAPAAHNRGLTGSGVKVAVLDTGISTHPDLNIRGGASFVPGEPSTQDGNGHGTHVAGTIAALNNSIGVLGVAPSAELYAVKVLGASGSGSVSSIAQGLEWAGNNGMHVANLSLGSPSPSATLEQAVNSATSRGVLVVAASGNSGAGSISYPARYANAMAVGATDQNNNRASFSQYGAGLDIVAPGVNVQSTYPGSTYASLNGTSMATPHVAGAAALVKQKNPSWSNVQIRNHLKNTATSLGSTNLYGSGLVNAEAATR
modifications: (1)..(380) Savinase P29600

Assays:
[1] = Formulation protocols and long term stability in 60% Detergent-1 under accelerated ageing; assay type: physicochemical; conditions: 1M KCl, sequential mixing of NI and IC into 60% Detergent-1
Experimental: FIG. 12 illustrates comparison of alternative protocols to detergent formulate NI and IC and evaluated formulations for long term stability. Two formulation protocols as follows were compared: 1) formulation by sequential mixing of unsalted NI and IC to the detergent (detergent+NI+IC) and 2) formulation of KCl stabilized (NI+IC) premix to detergent. Detergent-1 was used at 60% (v/v) in two formats, either without supplement (−), or KCl supplement was added to 1M final concentration (+). Purified NI and IC were each used at benchmarking conc. to 1% (v/v) Savinase, at 38.1 μmolar concentration each. (NI+IC) premix was prepared and formulated to the detergent essentially as described in Example 7. Formulations were stored at 37° C. under accelerated ageing conditions and storage stabilities were tested by assaying retention of dilution inducible iProtease activity over 8 weeks at t=0, 1, 3, 6 and 8 weeks in storage. Dilution inducible activity was assayed in sequential dilutions to assay buffer, from 40- to 5120-fold dilutions as described in Example 7. iProtease activities at the 2 min time point reads of the 1:1280-fold dilutions were normalized to dilution induced iProtease activity of the (NI+IC) premix in detergent without salt at t=0 and were plotted.

[2] = Protease activity of KCl stabilized (NI+IC) premix and Savinase assayed in KCl; assay type: biochemical; conditions: formulated to 1M KCl aqueous buffer, diluted in KCl
Experimental: iProtease activity was benchmarked to 1% (v/v) Savinase. Formulation of (NI+IC) and Savinase to 1M KCl aqueous buffer was the same as in Example 1, but enzyme activity was assayed in 2M KCl as follows: In a clear flat-bottomed half-volume 96 well plate, row A wells were preloaded with […] pH˜9.0, 50 μl 4 M KCl, and 35 μL H2O. Rows B-H were preloaded with 5 μl 1×BR buffer pH˜9.0, 25 μL 4 M KCl, and 20 μL H2O. 5 μl (NI+IC) formulation was added to row A, mixed by pipetting, then 50 μL of this 20× diluted sample was added to the 50 μl salt, buffer, and water in row B and mixed. […] This process of 2× serial dilutions was repeated for rows C-H. All samples were diluted an addition 2× by adding 50 μL 500 μM suc-FAAF-pNA (in 20% DMSO) substrate, yielding samples diluted from 40× in row A to 5120× in row H. Protease activity was assayed by reading absorbance at 400 nm at 30° C. FIGS. 9A-9B illustrate that KCl stabilized (NI+IC) premix has no enzyme activity. FIG. 9A illustrates iProtease activity of the 80-fold diluted (NI+IC) premix. […].

[3] = Stability of dilution inducible protease activity in three detergents under accelerated ageing; assay type: physicochemical; conditions: Savinase without the stabilizer (dialyzed), 37° C., up to 4 weeks
Experimental: Detergents were: Detergent-1, Detergent-2 and Detergent-3. For benchmarking 1% (v/v) Savinase was used, but instead of formulating the inhibitor stabilized form, the inhibitor was first removed by three steps of overnight dialysis of 0.5 mL Savinase against 5 L mTSB buffer at 4° C. using a Tube-O-Dialyzer Medi (4000 Da; GBiosciences). Volume of dialyzed Savinase in mTSB were adjusted to 1.5 mL, and 3 μL dialyzed aliquot treated with equal volume of 4M KCL was used to formulate 100 μL detergent to get 1% (v/v) of the Savinase. Sample handling was essentially the same as in Example 8, except that formulations were made to 65% detergents supplemented with KCL to 1M final conc.
Purified NI and IC were used at equimolar conc. to 1% (v/v) dialyzed Savinase, at […] concentration each. (NI+IC) premix in 2M KCl was prepared as described in Example 7, and formulations were made to 65% detergents supplemented with KCl to 1M final conc.
Detergent formulations were stored under accelerated ageing conditions at 37° C. Residual protease activities were assayed at five time points, at t=0, 1, 2, 3, and 4 weeks, in serial dilutions to assay buffer as described before. The 2 min reads of 1:2560-fold dilutions of each formulation was normalized to the t=0 as 100% and graphed. […]

[4] = Stability of stain removal activity in three detergents under accelerated ageing; conditions: 37° C., up to 4 weeks, normalized to t=0
Experimental: Formulations made for Example 15 were stored under accelerated ageing conditions at 37° C., and were evaluated for stain removal activity at five time points, at t=0, 1, 2, 3, and 4 weeks in storage.
The blood/milk/ink stained fabric of EMPA 117 was used in wash tests as described in Example 15. FIG. 17 illustrates stain removal stability under accelerated ageing conditions in three detergents. Three replicate washes were performed from each formulation at each time point. Referring to this figure, white light reflectance of the washed EMPA117 fabrics were normalized to their corresponding t=0 samples and were graphed.

[5] = Suppression of protease activity in Detergent-1 formulations; assay type: biochemical; conditions: formulations in Detergent-1

Molecule	boost of dilution inducible iProtease activity by supplementing the detergent [1]	effect of 1M KCl on protease activity [2]	loss of initial enzyme activity [3]	stain removal activity after storage [4]	effect of Detergent-1 on protease activity [5]
[Cl-].[K+] [KCl, potassium chloride]	approximately 3 fold				
B1		did not inhibit protease activity	25-70%	full stain removal activity	did not suppress
